# Measured values taken from the nanobody polyreactivity screen of Harvey et al. (2022).
# Assay: yeast display, Sf9 membrane polyspecificity reagent, FACS + sequencing; frameworks hold sequencing errors
# How it was run: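 Nanobodies from a synthetic yeast display library (Saccharomyces cerevisiae BJ5465), induced 36–48 hours with galactose, were stained 1 hour at 4 °C with 10% biotinylated, detergent-solubilized Sf9 membrane reagent, enriched on streptavidin microbeads, then FACS-sorted. Anti-HA (expression) and streptavidin (reagent binding) fluorescence set low and high (top ~1%) gates. Polyreactivity labels come from the gate of origin. Genes were colony-PCR amplified, MiSeq 2 × 250 sequenced and filtered by CDR length.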
row,Sequence,polyreactivity (PSR sort gate)
1,QVQLVDSGGGLVQAGGSLRLRCAASGLTFYTYAMGWYRQAPGKERELVAANRWRGGRTYYADSVKGRFTISRDNAKNTVYLQMNSLKPDDTAVYYCAADYSTLYKYDYWGQGTQVTVSS,low polyreactivity
2,QVQLVESGGGLVQAGGSLRLSCAASGNIISIYAMGWYRQAPGKEREFVASNDWSVASTYYADSVKGRFTISRDNAKNTVYLQMNSLKPEDTAVYYCAAELFGLKYGYYLSYDYWGQGTQVTVSS,high polyreactivity
3,QVQLVESGGGLVQAGGSLRLSCAASGSPFRSYAMGWYRQAPGKERELVAAISISGGRTYYADSVKGRFTISRDNAKNTVYLQMNSLKPEDTAVYYCAADRRTDGHDYWGQGTQVTVSS,high polyreactivity
4,QVQLVESGGGLVQAGGSLRLSCAASGSIFVTNAMGWYRQAPGKERELVAAISGGADSTYADSVKGRFTISRDNAKNTVYFQMNSLKPEDTAVYYCAAKVRGWHYYYWGQGTQVTVSS,low polyreactivity
5,QVQLVESGGGLVQAGGSLRLSCAASGSTFRVNAMGWYRQAPGKERELVAAISSSGGITYYADSVKGRFTISRDNAKNTVYLQMNSLKPEDTAVYYCAKGTVIHVLYDYWGQGTQVTVSS,low polyreactivity
6,QVQLVESGGGLVQAGGSLRLICAASAFNFRYYVMGWYRQAPGKERELVAVISYSGGSTYYADSVKGRFTISRDNAKNTVYLQRNSMKPEDTAVYYCDARYYVATSSIYYYWGQGTQVTVSS,high polyreactivity
7,QVQLVESGGGLVQAGGSLRLSCAASGLTLQGYVMGWSRQAPGKDRELVATISYSGGSTRYADSVKGRFTISRDNAKNTVYLQMNSLNPEDTAVYYCNRDSFHYYAERDYWGQGTQVTVSS,low polyreactivity
8,QVQLVESGGGLVQAGGSLRLSCAASGSIFSANTMGWYRQAPGNEREFVAGITTSAGRTDYADSVKGRFTISRDNAKNTVYVQMNSLKPEDTAVYYCNADRRYYYHYRRYWYDYWGQGTQVTVSS,high polyreactivity
9,QVQLVESGGGLVQAGGSLRLSCAASGITSSLNAMGWYRQAPGKERELVAAISWRGGSTYYADSVKGRFTISRDNAKNTVYLQMNSLKPEDTAVYYCAARSSYRKMDYWGQGTQVTVSS,high polyreactivity
10,QVQLVESGGGLVQAGGSLRLSCAASGRIGRYAMGWYRQAPGKERELVAAITWSGGSTYYADSVKGRFTISRDNAKNTVYLQMNSLKPEDTAVYYCATGRYRDQPRTGYDYWGQGTQVTVSS,high polyreactivity
11,QVQLVESGGGLVQAGGSLRLSCAASGRIFSFYTMGWYRQAPGKERELVAAISGSGGSTYYADSVKGRFTISRDNANNTFYLQMNSLKPEDTAVYYCAAGYGFRYYLYDYWGQGTQVTVSS,high polyreactivity
12,QVQLVESGGGLVQAGGSLRLSCAASGSTFYSYAMGWYRQAPGKERELVAAITKGGGSTYYADSVKGRFTISRDNAKNTVYLQMNSLKPEDTAVYYCAAPGLYWYYTRSGYDYWGQGTQVTVSS,high polyreactivity
13,QVQLVESGGGLVQAGGSLRLSCAASGRTFYFYAMGWYRQAPGKERELVAAITSRVGRTYYADSVKGRFTISRDTAKNTVYLQMNSLKPEDTAVYDCAAEGVYRMGYWGQGTQVTVSS,high polyreactivity
14,QVQLVESGGGLVQAGGSLRLSCAASGSTFTNYAMGWYRQAPRKERELVAAITSVGSTYYADSVKGRFTISRDNAKNTVYLQMNSLKQEDTAVYYCNVVYRDQYNYWGQGTQVTVSS,low polyreactivity
15,QVQLVESGGGLVQAGGSLRLSCAASGRTFGRNTMGWYRQAPGKERELVAGISRSAGRTYYADSVKGRFTISRDNAKNTVYLQMNSLKPEDTAVYYCAARYQGNYRTDKYDYWGQGTQVTVSS,high polyreactivity
16,QVQLVESGGGLVQAGGSLRLSCAASGRIFSSYAMGWYRQAPGKERELVAAISRSGARTYYADSVKGRFTISRDNAKNTVYLQMNSLKPEDTAVYYCAAVTVAGYDYWGQGTQVTVSS,high polyreactivity
17,QVQLVESGGGLVQAGGSLRLSCAASGRIFSRYAMGWYRQAPGKERELVAAITGRGGSTYYADSVKGRFTISRDNAKNTVYLQMNSLKPVDTAVYYCAVANRVTPLFLRYDYWGQGTQVTVSS,high polyreactivity
18,QVQLQESGGGLVQAGGSLRLSCAASGYISAGRQMGWYRQAPGKEREFVATINGGATTNYADSVKGRFTISRDNAKNSVFLQMNSLKPEDTAVYYCAAVIWYVQDYSYWGQGAQVTVSS,high polyreactivity
19,QVQLVESGGGLVQAGGSLRLSCAASGSIFGQYAMGWYRQAPGKERELVASISASAASTYYADSVKGRFTISRDNAMNTVYLQLNSLKPEDTAVYYCNATTRWIGYVTIDFDYWGQGTQVNVSS,low polyreactivity
20,QVQLVESGGGLVQAGGSLRLSCAASGFIFVPNAMGWYRQAPGKERELVAAIRWSDGTTYYADSVKGRFTISRDNAKNNVYLQMNSLKPEDTAVYYCATDHDPRYDYWGQGTQVTVSS,high polyreactivity
21,QVQLLESRGGLVQAGGSLRLSCAASGRNFGRYTMGWYRQAPGKERELVAAISARGGSTYYADSVKGRFTISRDNAKNTVYLQMNSLKPEDTAVYYCNTVRVHGFPIDRIYDYWGQGTQVTVSS,high polyreactivity

row,Sequence,polyreactivity (PSR sort gate)
1,QVQLVESGGGLVQAGGSLRLSCAASGGIFFSYAMGWYRQAPGKERELVAAIRTNGGTTYYADSVKGRFTISRDNAKNTVYLQMNSLKPEDTAVYYCAAKQFSVTLSNYWGQGTQVTVSS,low polyreactivity
2,QVQLVESGGGLVQAGGSLRLSGAASGRILRRYTMGWSRQAPGKERELVAAISSGGNTYYADSVKGRFTISRDNATNTVYLQMNSLKPEDTAGYYCAARVRRYWEYDYWGQGTQVTVSS,low polyreactivity
3,QVQHVESGGGLVQAGGSLRLSCASSGRTFYEYAMGWYRQAPGKERELVAGITSGGSTNYADSVKGRFTISRDNAKNTVYLQMNSLKPEDTAVYYCAASYWGYEYDYWGQGTQVTVSS,low polyreactivity
4,QVQLVESGGGLVQAGGSLRLSCAASGFNFIKYAMGWSRQSPGKESELVAAISFRGGRTYYADSVKGRITISRDNAKNTVYLQMNSLKPEDTAVYYCAAETRDYSEGYYWGQGTQVTVSS,high polyreactivity
5,QVQLVESGGGLVQEGGSLRLSCAASGRTFADYTMGWYRQAPGKERELVAAISFSGGSTYYEDSVKGRFTISRDNAKNTVYLQMNSLKPEDTAFYYCAAGHKRRAPRYYYWGQGTQVTVSS,high polyreactivity
6,QVQLVESGGGLVQAGGSLRLSCAASGSTFTPYGMGWYRKAPGKERELVAAITVSGGRTYDADSVKGRFTISRDNAKNTVYLQMNSLKPEDTAVYYCAAVYLRGDGEYDYWGQGTQVTVSS,low polyreactivity
7,QVQIVESGGGLVQAGGSLRLTCAASGSTLTIYARGWYRQAPGKERDLVAAISRSGGRTYYADSVKGRFTISRDYAKNTVYLQMNSLKPEDTAVYYCAARGWSYRSVGYMDYWGQGTQVTVSS,high polyreactivity
8,QVQLVESGGGLVQAVGSLRLSCAASGSTLTSYGMGWYRQAPGKERELVAAISRNGGGTYYADSVKGRFTISRDNAKNTVYLQMNSLKPEDTAGYYCAVVRYSSRYDYWGQGTQVTVSS,high polyreactivity
9,QVQLVESGGGLVQAGGSLRISCAASGSIFLYYAMGWYRQPPGKEREFVAAISYSGGRTYYADSVKGRFTISRDNAKNTVYLQMNSLKPEDTAVYYCNALYRLGVSGLTQSRYGYWGQGTQVTVSS,high polyreactivity
10,QVQLVESGGGLVQAGGSLRLSCAASGFIFRQYAMGWYRQAPGKERELVAAISWSGGSTYYADSVKGRFTISRDNAKNTVYLQMNSLKPEDTAVYYCNVLTPPTDYDYWGQGTQVTVSS,high polyreactivity
11,QVQLVETGGGLVQAGGSLRLSCADSGFIFRYYAMGRYRQAPGKERELVAAISSRGASTYYADSVKGRFTISRDNEKNTVYLQMNRLKPEDTAVYDCNARFNRASEMDYWGQGTQVTVSS,high polyreactivity
12,HLHLPERVGGLVHAGGSLRLSSAASGYISWAGYMGWYRQPPGKERELVATISYGTSTSYADSVKGRFTISRDNAKNSVYLQMNSLKPEDSAVYYCNADWVFTWYDYPNDKYDYWGQGTQVTVSS,low polyreactivity
13,QVQLVESGGGLVQAGGSLRLSCAASGRIFYRYAMGWYRQAPGKERELVARITSSGSTNYADSVKGRFTISRDNAKNTVYLQMNSLKPEDTAVYYCAARKLFIPKYYYWGQGTQVTVSS,high polyreactivity
14,QVQLVESGGGLVQAGGSLRLSCAASGFTFYQYTMGRYRQAPGKERELVATITSDGGTNYADSVKGRFTISRDNAKNTVYLQMNSLKPEDTAVYYCARDYLSPYAVDYWGQGTQVTVSS,low polyreactivity
15,HVQLVESGGGLVQAGGSLRLSCAASGSTVRRYAMGWYRQAPGKEREFVASITWRGGGTYYADSVKGRFTISRDNAKNTVYLQMNSLKPEETAVYYCASATQVRGHSLPYGYWGQGTQVTVSS,high polyreactivity
16,QVQLVESGGGLVQAGGSLRLSCAASGSIFPGYAMGWYRQAPGKERELVATITWSGGSTYYADSVKGRFTISRDNAKNTVYLQMISLKTEDTAVYYCNADSNCYYQWNYYGLYDYWGQGTQVTVSS,low polyreactivity
17,QVQLVESGGGLVQAGGILRLSCAASGNIFPINAMGWYRQAPGKEREFVAAITRSGSRTYYADSVKGRFTISRDNAKNTVYLQMNSLKKEDTAVYYCADRGNSTPVYSRYGYWGQGTQVTVSS,low polyreactivity
18,QVQLVESGGGLVQAGGSLRLSCAASGRIFGYTMGWYRQAPGKERELVAAISKSGGSTYYADSVKGRFTISRDNAKNTVYLQMNSLKPEDTAVYYCNKPQRILYDYWGQGTQVTVSS,high polyreactivity
19,QVQLVESGGGLVQAGGSLRLSCAASGIIYKSYAMGWYRQAPGKERELVAVIRWSGGSTYYSDSVKGRFTISRDNAKNTVYLQMNSLKPEDTAVYYCAATPRKSYSIRRYDYWGQGTQVTVSS,high polyreactivity
20,QVQLVESGGGLVQAGGSLRLSCAASGRTFSRNAMGWYRQAPGKEREFVASISRSGTSTYYADSVKGRFTISRDNAKNTVYLHMNSLKPEDTAVYYCAKTYASSQGYDYWGLGTQVTVSS,high polyreactivity
